Experimental data from PMC11076491, “Allosteric regulation by c-di-AMP modulates a complete N-acetylglucosamine signaling cascade in Saccharopolyspora erythraea” (Nature Communications, 2024).

Columns and labels:
[1] = test system: DasR (Saccharopolyspora erythraea); assay: BLI; conditions: EMSA: 10 mM Tris-HCl pH 8.0, 25 mM MgCl2, 50 mM NaCl, 1 mM DTT, 1 mM EDTA, 0.01% NP-40, 50 ug/mL poly(dIdC), 10% glycerol, 18 C, 30 min, BLI: 10 mM HEPES pH …
[2] = target: T1, DasR (His-DasR) of S. erythraea (Saccharopolyspora erythraea, UniProt A4F723); assay: isothermal titration calorimetry; format: binding
T1 construct: gene SACE_0500; full-length, His-tagged, expressed in E. coli BL21(DE3), Ni-NTA purified; predominantly dimer (c-di-AMP promotes dimerization)
T1 sequence (A4F723 1-251): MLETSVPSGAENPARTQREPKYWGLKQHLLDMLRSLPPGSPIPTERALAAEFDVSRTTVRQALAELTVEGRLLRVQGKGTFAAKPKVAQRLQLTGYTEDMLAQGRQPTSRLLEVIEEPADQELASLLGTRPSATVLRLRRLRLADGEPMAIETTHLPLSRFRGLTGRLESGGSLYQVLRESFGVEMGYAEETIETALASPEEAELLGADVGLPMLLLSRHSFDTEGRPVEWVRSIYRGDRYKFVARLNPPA

ScoDasR (DasR^Sco) = target: T2, ScoDasR (DasR^Sco) (Streptomyces coelicolor, UniProt Q9K492); assay: isothermal titration calorimetry; format: binding
T2 construct: full-length, His-tagged, expressed in E. coli BL21(DE3), Ni-NTA purified; GntR family, predominantly dimer
T2 sequence (Q9K492 1-254): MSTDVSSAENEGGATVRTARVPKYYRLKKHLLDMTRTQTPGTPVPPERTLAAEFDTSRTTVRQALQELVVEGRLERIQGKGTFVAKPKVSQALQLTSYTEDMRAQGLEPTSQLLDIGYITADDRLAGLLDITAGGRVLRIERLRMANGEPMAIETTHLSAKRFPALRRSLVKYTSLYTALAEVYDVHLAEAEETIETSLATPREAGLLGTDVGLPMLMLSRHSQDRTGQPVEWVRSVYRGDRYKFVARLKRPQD

Row | Compound | Kd ([1]; 100 uM c-di-AMP) [µM] | Kd ([1]; no c-di-AMP) [µM] | Kd [2] [µM] | Kd (ScoDasR (DasR^Sco)) [µM]
1 | nagA promoter | 0.44 | 19 | – | –
2 | Nc1ncnc2c1ncn2[C@@H]1O[C@@H]2COP(=O)(O)O[C@H]3[C@@H](O)[C@H](n4cnc5c(N)ncnc54)O[C@@H]3COP(=O)(O)O[C@H]2[C@H]1O [c-di-AMP] | – | – | 26.8 | 23
